The target in the assay is recombinant TMPRSS2 (UniProt O15393). Briefly: enzyme inhibition kinetics (progress curve method); TMPRSS2 mixed with increasing SB3 (0-10 uM), fluorescent substrate Z-Gly-Gly-Arg-AMC, TBS pH 7.6, 25 °C, 300 s; Camostat mesylate as reference inhibitor.

In the case of “recombinant SerpinB3 protein, wild type (from UniProt P29508 1-390) (natural protein)”, the dissociation constant, fold against Camostat is 6 times lower.

Source of the values: PMC12442068.
